{
  "source": "paper PMC13615496",
  "origin": "cited, not measured here",
  "molecular_target": "PYL (Arabidopsis thaliana) (UniProt Q8VZS8)",
  "sequence (Q8VZS8 2-221)": "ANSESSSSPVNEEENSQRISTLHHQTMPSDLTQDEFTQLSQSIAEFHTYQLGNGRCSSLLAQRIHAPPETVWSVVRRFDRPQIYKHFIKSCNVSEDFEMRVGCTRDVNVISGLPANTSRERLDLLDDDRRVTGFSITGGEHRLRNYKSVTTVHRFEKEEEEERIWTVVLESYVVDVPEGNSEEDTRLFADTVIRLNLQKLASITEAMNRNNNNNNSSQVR",
  "data": [
    {"substance": "ABI (from UniProt P49597)", "values": [
      {"measurement": "Kd", "result": 52, "unit": "µM"}
    ]}
  ]
}
